Test results reported in patent US8889621B2, “Inhibiting binding of FGF23 to the binary FGFR-Klotho complex for the treatment of hypophosphatemia” (New York University, priority 2009, dated 2014).

Test system: binary FGFR-Klotho complex
Assay: Pull-down / co-precipitation of FGF23 proteins with FGFR-Klotho complex
Format: binding
Conditions: HEK293-Klotho cell lysate
Description: A pull-down assay may also be used to confirm the existence of a protein:protein interaction (i.e. FGF23^180-251 binding to the binary FGFR-Klotho complex). One aspect of the present invention utilizes pull-down assays. These assays involved subconfluent cultures of a HEK293 cell line ectopically expressing the FLAG-tagged membrane-spanning form of murine Klotho, which were harvested and lysed. Cell lysate was incubated with FGF23^28-251, FGF23^28-200, FGF23^28-179, FGF23^180-251, or protein sample buffer, and binary complexes of Klotho and endogenous FGFR were isolated from cell lysate using anti-FLAG M2 agarose beads. […]
In parallel, subconfluent HEK293-Klotho cells (Kurosu et al., “Regulation of Fibroblast Growth Factor-23 Signaling by Klotho,” J Biol Chem 281(10):6120-6123 (2006), which is hereby incorporated by reference in its entirety) were transfected with expression vectors for V5-tagged FGFR1c, FGFR3c, or FGFR4 (Kurosu et al., “Regulation of Fibroblast Growth Factor-23 Signaling by Klotho,” J Biol Chem 281(10):6120-6123 (2006), which is hereby incorporated by reference in its entirety) and binding of FGF23 proteins/peptides to Klotho-FGFR complexes isolated from cell lysate was analyzed. […]

Sequence of binary FGFR-Klotho complex (O35082 35-1014, one chain of several): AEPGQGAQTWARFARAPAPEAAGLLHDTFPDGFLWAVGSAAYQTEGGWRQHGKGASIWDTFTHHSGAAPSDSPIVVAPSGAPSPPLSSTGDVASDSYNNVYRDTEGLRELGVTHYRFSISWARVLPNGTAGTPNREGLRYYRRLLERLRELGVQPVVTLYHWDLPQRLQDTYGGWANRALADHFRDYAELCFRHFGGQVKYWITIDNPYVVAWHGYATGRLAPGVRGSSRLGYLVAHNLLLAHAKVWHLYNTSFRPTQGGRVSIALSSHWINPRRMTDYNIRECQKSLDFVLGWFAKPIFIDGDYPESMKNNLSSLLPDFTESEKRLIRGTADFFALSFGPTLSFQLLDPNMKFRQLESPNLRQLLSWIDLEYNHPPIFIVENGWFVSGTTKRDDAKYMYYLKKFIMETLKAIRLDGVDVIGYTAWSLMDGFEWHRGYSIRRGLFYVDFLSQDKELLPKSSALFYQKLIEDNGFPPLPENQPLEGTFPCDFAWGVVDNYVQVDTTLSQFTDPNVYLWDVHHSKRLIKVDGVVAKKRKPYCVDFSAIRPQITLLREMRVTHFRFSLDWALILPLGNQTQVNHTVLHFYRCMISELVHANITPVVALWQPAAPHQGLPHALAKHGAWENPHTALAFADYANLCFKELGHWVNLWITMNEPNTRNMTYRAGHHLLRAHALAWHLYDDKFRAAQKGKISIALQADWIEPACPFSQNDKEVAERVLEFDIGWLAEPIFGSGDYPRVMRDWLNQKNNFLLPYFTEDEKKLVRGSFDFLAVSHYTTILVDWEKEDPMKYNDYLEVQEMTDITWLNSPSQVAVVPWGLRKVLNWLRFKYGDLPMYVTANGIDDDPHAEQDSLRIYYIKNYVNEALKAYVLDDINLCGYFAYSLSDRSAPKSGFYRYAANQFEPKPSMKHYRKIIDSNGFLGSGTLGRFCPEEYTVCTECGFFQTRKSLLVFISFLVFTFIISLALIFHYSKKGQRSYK

B1: FGF23^180-251: 72-amino acid C-terminal tail of human FGF23 (S180 to I251), expressed in E. coli (protein, listed as Homo sapiens)
chain: SAEDDSERDPLNVLKPRARMTPAPASCSQELPSAEDNSPMASDPLGVVRGGRVNTHAGGTGPEGCRPFAKFI
- co-precipitation with the binary FGFR-Klotho complex: co-precipitated with each of the three binary FGFR-Klotho complexes
